For the assay, the target named is T1, DDB1 (DNA damage-binding protein 1) (human, UniProt Q16531 1-1140).
T1 construct: triple beta-propeller (BPA, BPB, BPC) and CTD; also called free DDB1; purified DDB1; source: purified recombinant protein
As to the kind of experiment: BLI; affinity-tagged DDA1 FL and fragments immobilised on the probe as ligand, free DDB1 as analyte at different concentrations; Kd from the dose response curve of maximal binding signals. The note with it: both partners purified. (In general: Biolayer interferometry detects binding as a change in optical thickness at a sensor tip.)

The text below walks through data of article PMC6288126, “Structural insights into DDA1 function as a core component of the CRL4-DDB1 ubiquitin ligase” (Cell Discovery, 2018).

As usually defined, the Kd is a measure of binding affinity in units of concentration.

T1 sequence (Q16531 whole entry): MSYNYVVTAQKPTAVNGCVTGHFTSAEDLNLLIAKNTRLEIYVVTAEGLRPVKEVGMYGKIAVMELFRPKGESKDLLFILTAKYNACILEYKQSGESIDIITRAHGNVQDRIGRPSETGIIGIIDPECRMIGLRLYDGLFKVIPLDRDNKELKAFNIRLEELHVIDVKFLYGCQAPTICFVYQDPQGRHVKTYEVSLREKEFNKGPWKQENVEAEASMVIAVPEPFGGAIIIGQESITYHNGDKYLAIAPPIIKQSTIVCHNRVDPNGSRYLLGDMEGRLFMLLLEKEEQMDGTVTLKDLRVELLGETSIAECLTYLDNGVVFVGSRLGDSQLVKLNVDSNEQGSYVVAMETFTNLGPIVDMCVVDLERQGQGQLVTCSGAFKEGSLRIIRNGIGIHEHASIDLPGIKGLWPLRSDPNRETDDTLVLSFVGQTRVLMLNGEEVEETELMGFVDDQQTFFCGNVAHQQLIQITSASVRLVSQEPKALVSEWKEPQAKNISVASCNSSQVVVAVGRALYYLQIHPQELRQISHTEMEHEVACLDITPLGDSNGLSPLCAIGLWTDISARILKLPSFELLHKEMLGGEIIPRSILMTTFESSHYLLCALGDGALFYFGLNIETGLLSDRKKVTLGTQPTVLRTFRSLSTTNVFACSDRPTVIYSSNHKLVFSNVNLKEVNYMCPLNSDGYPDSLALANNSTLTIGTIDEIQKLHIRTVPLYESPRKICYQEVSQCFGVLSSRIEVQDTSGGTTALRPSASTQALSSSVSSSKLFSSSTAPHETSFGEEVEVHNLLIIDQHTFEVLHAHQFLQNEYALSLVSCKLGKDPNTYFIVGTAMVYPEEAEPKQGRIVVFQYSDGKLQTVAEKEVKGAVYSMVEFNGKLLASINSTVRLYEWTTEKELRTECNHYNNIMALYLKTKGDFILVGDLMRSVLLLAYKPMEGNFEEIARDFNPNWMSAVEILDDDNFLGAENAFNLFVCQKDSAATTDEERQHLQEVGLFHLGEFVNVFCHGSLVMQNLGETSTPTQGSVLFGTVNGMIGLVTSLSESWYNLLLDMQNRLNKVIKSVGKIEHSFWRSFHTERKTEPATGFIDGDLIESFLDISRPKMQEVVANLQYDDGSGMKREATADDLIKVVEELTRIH

B1: Affinity-tagged DDA1-NT (1-28 aa) (bio-layer interferometry) (domain or fragment)
chain: not shown
notes: DDA1, N-terminal fragment DDA1-NT (1-28 aa); it may be the GST fusion of m3; source: purified recombinant protein
As for B1, the dissociation constant Kd is roughly 45 nM.
